One molecule from article PMC10164574, “Fission yeast Swi2 designates cell-type specific donor and stimulates Rad51-driven strand exchange for mating-type switching” can be followed below.

The data set has as its target T1, Swi2N (Schizosaccharomyces pombe, UniProt Q10668 1-391).
T1 sequence: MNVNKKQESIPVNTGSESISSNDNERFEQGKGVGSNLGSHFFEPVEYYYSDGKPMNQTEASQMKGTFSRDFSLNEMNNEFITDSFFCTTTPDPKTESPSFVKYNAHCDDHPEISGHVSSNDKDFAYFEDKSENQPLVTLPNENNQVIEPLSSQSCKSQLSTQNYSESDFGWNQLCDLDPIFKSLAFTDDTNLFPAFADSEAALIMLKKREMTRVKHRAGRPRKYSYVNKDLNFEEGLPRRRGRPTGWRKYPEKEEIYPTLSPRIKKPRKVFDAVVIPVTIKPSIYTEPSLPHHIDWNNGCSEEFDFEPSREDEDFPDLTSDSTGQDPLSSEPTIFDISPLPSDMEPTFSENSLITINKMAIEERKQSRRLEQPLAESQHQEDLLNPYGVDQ
The data set is described as follows: EMSA; 20 mM Tris-HCl pH 7.5, 100 mM NaCl, 5% glycerol, 1 mM DTT, room temperature 10 min; 1% agarose in TAE. As to conditions: protein: recombinant; tags: His-SUMO removed by Ulp1; label: 5' FAM; single strand. A general note: In EMSA bound probe runs differently from free probe, usually more slowly.

B1: FAM-H1 (59 nt) (ssDNA)
DNA: CATGGAAACGAACGAGAGAAAACAAAGGAGAAAGACTATACATTTATATTACAAAAAAA
With B1, the binding result was “no binding”.
